We go through one molecule from publication PMC8142254, “The mycobacterial proteasomal ATPase Mpa forms a gapped ring to engage the 20S proteasome” (The Journal of Biological Chemistry, 2021).

Test [1] deals with Mycobacterium tuberculosis open-gate 20S proteasome core particle (20SOG CP) (Mycobacterium tuberculosis) (UniProt P9WHU1). In words: negative-stain EM; 2 M equivalents of Mpa hexamer, 3 M equivalents of Pup and 1 M equivalent of 20SOG CP with 3 mM ADP on ice for 40 min; 2D class averages of side views, capped versus uncapped CPs counted.
Sequence of Mycobacterium tuberculosis open-gate 20S proteasome core particle (20SOG CP) (Mycobacterium tuberculosis) (P9WHU1 whole entry, chain 1 of 2): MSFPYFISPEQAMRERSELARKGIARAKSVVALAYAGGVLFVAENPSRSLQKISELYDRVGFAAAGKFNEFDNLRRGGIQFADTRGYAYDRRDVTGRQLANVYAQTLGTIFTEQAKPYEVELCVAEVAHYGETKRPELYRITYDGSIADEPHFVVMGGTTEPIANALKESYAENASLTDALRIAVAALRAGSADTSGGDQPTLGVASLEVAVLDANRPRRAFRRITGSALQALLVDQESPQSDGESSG
Sequence of Mycobacterium tuberculosis open-gate 20S proteasome core particle (20SOG CP) (Mycobacterium tuberculosis) (P9WHT9 58-291, chain 2 of 2, further chain): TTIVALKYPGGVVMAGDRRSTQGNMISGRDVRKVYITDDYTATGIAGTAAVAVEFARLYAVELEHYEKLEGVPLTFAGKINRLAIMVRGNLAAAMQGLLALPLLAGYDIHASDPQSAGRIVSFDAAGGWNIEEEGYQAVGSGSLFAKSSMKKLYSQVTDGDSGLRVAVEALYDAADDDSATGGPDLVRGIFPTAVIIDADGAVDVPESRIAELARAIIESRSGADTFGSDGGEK
Test [2] shares this target. In words: negative-stain EM; 2 M equivalents of Mpa hexamer, 3 M equivalents of Pup and 1 M equivalent of 20SOG CP with 3 mM ATP on ice for 40 min; 2D class averages of side views, capped versus uncapped CPs counted.

B1: Mycobacterium tuberculosis proteasomal ATPase Mpa, full-length (1–609) (enzyme)
chain: MGESERSEAFGIPRDSPLSSGDAAELEQLRREAAVLREQLENAVGSHAPTRSARDIHQLEARIDSLAARNSKLMETLKEARQQLLALREEVDRLGQPPSGYGVLLATHDDDTVDVFTSGRKMRLTCSPNIDAASLKKGQTVRLNEALTVVEAGTFEAVGEISTLREILADGHRALVVGHADEERVVWLADPLIAEDLPDGLPEALNDDTRPRKLRPGDSLLVDTKAGYAFERIPKAEVEDLVLEEVPDVSYADIGGLSRQIEQIRDAVELPFLHKELYREYSLRPPKGVLLYGPPGCGKTLIAKAVANSLAKKMAEVRGDDAHEAKSYFLNIKGPELLNKFVGETERHIRLIFQRAREKASEGTPVIVFFDEMDSIFRTRGTGVSSDVETTVVPQLLSEIDGVEGLENVIVIGASNREDMIDPAILRPGRLDVKIKIERPDAEAAQDIYSKYLTEFLPVHADDLAEFDGDRSACIKAMIEKVVDRMYAEIDDNRFLEVTYANGDKEVMYFKDFNSGAMIQNVVDRAKKNAIKSVLETGQPGLRIQHLLDSIVDEFAENEDLPNTTNPDDWARISGKKGERIVYIRTLVTGKSSSASRAIDTESNLGQYL
notes: Mpa (mycobacterial proteasome ATPase), Mycobacterium tuberculosis, full-length, residues 1-609; Homohexamer; In the cryo-EM model the coiled-coil domains and two of the six AAA domains are not resolved; also called mycobacterial proteasome ATPase; WT Mpa
As for B1, the percent of 20SOG CPs bound to Mpa hexamer in test [1] was 8%; in test [2], 37%.
